Laboratory results taken from patent publication US20240309056A1 (NAVIGO PROTEINS, published 2024).
Changes are numbered by the printed parent chain.

B1: affinity ligand 187029 (designed binder)
chain: NAAMDDFAQYSAWAEIEALPNLTEMQKDQFIWSLMFDPSVSKEVLGEAQKLNDSQAPK
notes: Artificial mosaic protein of Protein A-like structure
B2: affinity ligand 187028 (designed binder)
chain: B1 chain with M4R, D5S, F7E
B3: SEQ21 dimer (215996) (designed binder)
chain: NAARSDEAQYSAWAEIEALPNLTEMQKDQFIWSLMFDPSVSKEVLGEAQKLNDSQAPKQAPKVDAKFDQAPKVDAKFDNAARSDEAQYSAWAEIEALPNLTEMQKDQFIWSLMFDPSVSKEVLGEAQKLNDSQAPKC
B4: SEQ1 dimer (215999) (designed binder)
chain: B3 chain with R4M, S5D, E7F, R82M, S83D, E85F
B5: SEQ21 trimer (215997) (designed binder)
chain: NAARSDEAQYSAWAEIEALPNLTEMQKDQFIWSLMFDPSVSKEVLGEAQKLNDSQAPKQAPKVDAKFDQAPKVDAKFDNAARSDEAQYSAWAEIEALPNLTEMQKDQFIWSLMFDPSVSKEVLGEAQKLNDSQAPKQAPKVDAKFDQAPKVDAKFDNAARSDEAQYSAWAEIEALPNLTEMQKDQFIWSLMFDPSVSKEVLGEAQKLNDSQAPKC
B6: SEQ1 trimer (216000) (designed binder)
chain: B5 chain with R4M, S5D, E7F, R82M, S83D, E85F, R160M, S161D, E163F
B7: SEQ 21 tetramer (215998) (designed binder)
chain: NAARSDEAQYSAWAEIEALPNLTEMQKDQFIWSLMFDPSVSKEVLGEAQKLNDSQAPKQAPKVDAKFDQAPKVDAKFDNAARSDEAQYSAWAEIEALPNLTEMQKDQFIWSLMFDPSVSKEVLGEAQKLNDSQAPKQAPKVDAKFDQAPKVDAKFDNAARSDEAQYSAWAEIEALPNLTEMQKDQFIWSLMFDPSVSKEVLGEAQKLNDSQAPKQAPKVDAKFDQAPKVDAKFDNAARSDEAQYSAWAEIEALPNLTEMQKDQFIWSLMFDPSVSKEVLGEAQKLNDSQAPKC
B8: SEQ1 tetramer (216001) (designed binder)
chain: NAAMDDFAQYSAWAEIEALPNLTEMQKDQFIWSLMFDPSVSKEVLGEAQKLNDSQAPKQAPKVDAKFDQAPKVDAKFDNAAMDDFAQYSAWAEIEALPNLTEMQKDQFIWSLMFDPSVSKEVLGEAQKLNDSQAPKQAPKVDAKFDQAPKVDAKFDNAAMDDFAQYSAWAEIEALPNLTEMQKDQFIWSLMFDPSVSKEVLGEAQKLNDSQAPKQAPKVDAKFDQAPKVDAKFDNAAMDDFAQYSAWAEIEALPNLTEMQKDQFIWSLMFDPSVSKEVLGEAQKLNDSQAPKC
B9: SEQ ID NO: 2 (designed binder)
chain: AMDDFAQYSAWAEIEALPNLTEMQKDQFIWSLMFDPSVSKEVLGEAQKLNDSQAPK
notes: also called 187029 del2N
B10: SEQ ID NO: 2_A16H (designed binder)
chain: B9 chain with A16H
B11: SEQ ID NO: 2_D3F (designed binder)
chain: B9 chain with D3F
B12: SEQ ID NO: 2_F5E (designed binder)
chain: B9 chain with F5E
B13: SEQ ID NO: 2_K25R (designed binder)
chain: B9 chain with K25R
B14: SEQ ID NO: 2_M2K (designed binder)
chain: B9 chain with M2K
B15: SEQ ID NO: 2_M23E (designed binder)
chain: B9 chain with M23E
B16: SEQ ID NO: 2_Y8Q (designed binder)
chain: B9 chain with Y8Q

How the values were obtained:
ubiquitin mutein 200053 [1] = target: T1, ubiquitin mutein 200053; test: SPR (Biacore 3000), ligand immobilised via C-terminal Cys on CM-5, ubiquitin mutein in solution, Langmuir 1:1
T1 construct: also called Affilin-200053
Description: (§1) Purified proteins were immobilized via C-terminal Cysteine on a CM-5 sensor chip (GE Healthcare) using NHS/EDC after PDEA activation with a Biacore 3000 system (GE Healthcare). The chip was equilibrated with SPR running buffer (PBS 0.05% Tween pH 7.3). Soluble ubiquitin muteins (Affilin® proteins) applied to the chip in serial dilutions (different concentrations) with a flow rate of 30 μl/min. The association was performed for 120 seconds and the dissociation for 120 seconds. After each run, the chip surface was regenerated with 30 μl regeneration buffer (10 mM glycine pH 2.0) and equilibrated with running buffer. Affilin® proteins accumulated on the surface increasing the refractive index. This change in the refractive index was measured in real time and plotted as response or resonance units versus time.
(§2) Binding studies were carried out using the BIAcore 3000 (GE Healthcare); data evaluation was operated via the BIAevaluation 3.0 software, provided by the manufacturer, by the use of the Langmuir 1:1 model (RI=0). Evaluated dissociation constants (KD) were standardized against the immobilized protein and indicated. Shown is the change in refractive index measured in real time and plotted as response or resonance unit [RU] versus time [sec] (see Table 2).

ubiquitin mutein 77404 [2] = target: T2, ubiquitin mutein 77404; test: as above
T2 construct: also called Affilin-77404
Description: as §1, §2

ubiquitin mutein 211883 [3] = target: T3, ubiquitin mutein 211883; test: as above
T3 construct: also called Affilin-211883
Description: as §1, §2

ubiquitin mutein 139819 = target: T4, ubiquitin mutein 139819; test: as above
T4 construct: Monomer with an insertion of 6 amino acids between positions 9 and 10 of ubiquitin; also called Affilin-139819
Description: as §1, §2

ubiquitin mutein 77404 [4] = target: T2, ubiquitin mutein 77404; test: SPR (Biacore 3000), ligand immobilised, ubiquitin mutein in solution; Table 1 run; ligand on the chip, Affilin-77404 in solution
Description: as §1, §2

ubiquitin mutein 200053 [5] = target: T1, ubiquitin mutein 200053; test: SPR (Biacore 3000), ligand multimer immobilised, ubiquitin mutein in solution
Description: as §1, §2

ubiquitin mutein 77404 [6] = target: T2, ubiquitin mutein 77404; test: as above
Description: as §1, §2

ubiquitin mutein 211883 [7] = target: T3, ubiquitin mutein 211883; test: as above
Description: as §1, §2

ubiquitin mutein 77404 [8] = target: T2, ubiquitin mutein 77404; test: SPR; SEQ ID NO: 2, unmutated
Description: as §1, §2

ubiquitin mutein 77404 [9] = target: T2, ubiquitin mutein 77404; test: SPR; point mutant A16H
Description: as §1, §2

ubiquitin mutein 77404 [10] = target: T2, ubiquitin mutein 77404; test: SPR; point mutant D3F
Description: as §1, §2

ubiquitin mutein 77404 [11] = target: T2, ubiquitin mutein 77404; test: SPR; point mutant F5E
Description: as §1, §2

ubiquitin mutein 77404 [12] = target: T2, ubiquitin mutein 77404; test: SPR; point mutant K25R
Description: as §1, §2

ubiquitin mutein 77404 [13] = target: T2, ubiquitin mutein 77404; test: SPR; point mutant M2K
Description: as §1, §2

ubiquitin mutein 77404 [14] = target: T2, ubiquitin mutein 77404; test: SPR; point mutant M23E
Description: as §1, §2

ubiquitin mutein 77404 [15] = target: T2, ubiquitin mutein 77404; test: SPR; point mutant Y8Q
Description: as §1, §2

Binder | Kd (ubiquitin mutein 200053 [5]) | Kd (ubiquitin mutein 77404 [6]) | Kd (ubiquitin mutein 211883 [7]) | also measured
B1 | – | – | – | Kd (ubiquitin mutein 200053 [1]): 5.9 nM; Kd (ubiquitin mutein 77404 [2]): 1.3 nM; Kd (ubiquitin mutein 211883 [3]): 52.9 nM; Kd (ubiquitin mutein 139819): 75.5 nM; Kd (ubiquitin mutein 77404 [4]): < 0.5 nM
B2 | – | – | – | Kd (ubiquitin mutein 200053 [1]): 2.5 nM; Kd (ubiquitin mutein 77404 [2]): 0.6 nM; Kd (ubiquitin mutein 211883 [3]): 66.2 nM; Kd (ubiquitin mutein 139819): 47.3 nM
B3 | 5.5 nM | 0.16 nM | 78.1 nM | –
B4 | – | 0.1 nM | 55.6 nM | –
B5 | 8.5 nM | 0.4 nM | 73.4 nM | –
B6 | 6.5 nM | 0.3 nM | 56.2 nM | –
B7 | 8.3 nM | 0.05 nM | 95.7 nM | –
B8 | 6.5 nM | 0.6 nM | 93.1 nM | –
B9 | – | – | – | Kd (ubiquitin mutein 77404 [8]): < 0.5 nM
B10 | – | – | – | Kd (ubiquitin mutein 77404 [9]): < 0.5 nM
B11 | – | – | – | Kd (ubiquitin mutein 77404 [10]): < 0.5 nM
B12 | – | – | – | Kd (ubiquitin mutein 77404 [11]): < 0.5 nM
B13 | – | – | – | Kd (ubiquitin mutein 77404 [12]): < 0.5 nM
B14 | – | – | – | Kd (ubiquitin mutein 77404 [13]): < 0.5 nM
B15 | – | – | – | Kd (ubiquitin mutein 77404 [14]): < 0.5 nM
B16 | – | – | – | Kd (ubiquitin mutein 77404 [15]): < 0.5 nM
